Biological target: cardiac protein phosphatase 1 (type 1 phosphatase activity of mouse hearts) (mouse)
Experiment: cell-based or functional assay

constitutively active, truncated inhibitor-1 (I-T35D; AA 1-65), mouse (from UniProt Q9ERT9 1-65)
type 1 phosphatase activity: 15 % decrease
